{
  "source": "patent US20240408227A1",
  "target": "recombinant human TfR1 (human) (UniProt P02786)",
  "sequence (P02786 89-760 limits assumed)": "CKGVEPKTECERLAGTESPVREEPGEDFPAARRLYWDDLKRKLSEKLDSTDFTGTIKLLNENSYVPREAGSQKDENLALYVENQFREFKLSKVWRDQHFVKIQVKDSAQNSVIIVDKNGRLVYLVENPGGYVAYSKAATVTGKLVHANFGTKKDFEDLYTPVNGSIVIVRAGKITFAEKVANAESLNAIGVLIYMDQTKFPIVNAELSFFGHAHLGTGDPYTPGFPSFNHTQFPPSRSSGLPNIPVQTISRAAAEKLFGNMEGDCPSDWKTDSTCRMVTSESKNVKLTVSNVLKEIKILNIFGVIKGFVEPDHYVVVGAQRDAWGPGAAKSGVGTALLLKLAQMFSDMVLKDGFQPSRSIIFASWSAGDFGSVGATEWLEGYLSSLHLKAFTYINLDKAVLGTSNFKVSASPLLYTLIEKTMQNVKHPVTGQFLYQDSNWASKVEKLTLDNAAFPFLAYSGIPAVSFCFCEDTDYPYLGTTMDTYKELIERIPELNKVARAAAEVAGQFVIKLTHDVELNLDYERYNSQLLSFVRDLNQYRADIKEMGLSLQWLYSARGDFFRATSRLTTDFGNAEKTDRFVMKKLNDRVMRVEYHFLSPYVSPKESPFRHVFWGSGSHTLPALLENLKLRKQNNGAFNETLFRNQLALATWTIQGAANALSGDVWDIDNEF",
  "test": "SPR array (Carterra LSA), IgG captured, TfR as analyte, 25 C",
  "data": [
    {"substance": "OKT9 control anti-TfR1 antibody (mouse IgG)", "values": [
      {"measurement": "Kd", "value": 0.536, "unit": "nM"},
      {"measurement": "kon", "value": 774000, "unit": "M⁻¹ s⁻¹"}
    ]}
  ]
}
